Legend:
[1] = target: dimeric IL-2 receptor (Homo sapiens) (UniProt P14784); details: cited from earlier work
IL-2Rα (Homo sapiens) = IL-2Rα (Homo sapiens) (UniProt P01589); details: cited from earlier work
[2] = target: His-tagged ectodomain of human IL-2Rα (human) (UniProt P01589); assay: BLI; His-tagged IL-2Rα immobilised by amine coupling on AR2G biosensors; Octet RED96, 25 °C, D-PBS with 0.2% BSA and 0.05% Tween 20; two-fold dilutions (1.5-100 nM) of IL-2 and L72-FSY; dissociation 300 s; global 1:1 fit
[3] = target: extracellular domain of IL-2Rβ (UniProt P14784); assay: BLI; biosensors bearing the extracellular domain of IL-2Rβ; samples in a series of 3-fold dilutions
L72-FSY-IL-2 = L72-FSY-IL-2 (human, UniProt P60568 21-153, L72-FSY, fluorosulfate-L-tyrosine (FSY) at 72); assay: BLI

IL-2Rα (Homo sapiens), sequence (P01589 22-240): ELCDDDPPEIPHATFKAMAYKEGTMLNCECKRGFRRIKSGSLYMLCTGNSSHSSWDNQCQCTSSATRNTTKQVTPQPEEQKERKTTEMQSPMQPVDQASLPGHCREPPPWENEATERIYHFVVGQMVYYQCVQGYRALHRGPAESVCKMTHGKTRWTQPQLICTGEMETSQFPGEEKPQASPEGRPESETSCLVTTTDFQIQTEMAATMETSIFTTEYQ

IL-2 (from UniProt P60568)
Kd [1]: 1 nM | Kd (IL-2Rα (Homo sapiens)): 10 nM

L72-FSY-IL-2 (human IL-2 with fluorosulfate-L-tyrosine at position 72) (from UniProt P60568 21-153) (ligand)
Kd [2]: 10.3 nM

N-terminally PEGylated L72-FSY-IL-2 (from UniProt P60568 21-153) (ligand)
Kd [2]: 45.1 nM | Kd [3]: 743 nM

B1: extracellular domain of the β subunit of IL-2R (receptor)
chain: AVNGTSQFTCFYNSRANISCVWSQDGALQDTSCQVHAWPDRRRWNQTCELLPVSQASWACNLILGAPDSQKLTTVDIVTLRVLCREGVRWRVMAIQDFKPFENLRLMAPISLQVVHVETHRCNISWEISQASHYFERHLEFEARTLSPGHTWEEAPLLTLKQKQEWICLETLTPDTQYEFQVRVKPLQGEFTTWSPWSQPLAFRTKPAALGKDT
Kd (L72-FSY-IL-2): 70 nM

From publication PMC9871032 (2023)
